Publication PMC2948513 (PLoS ONE, 2010)
Non-standard residues stand in square brackets, D forms with d. No end group written: not given here. *: point of attachment. Biotin = O=C1N[C@H]2[C@H](CS[C@H]2CCCCC(=O)*)N1; pS = N[C@@H](COP(=O)(O)O)C(=O)O

B1: synthetic biotin-labeled peptide representing the N-terminal cytoplasmic domain (aa 2-23) of human NEP, non-phosphorylated (peptide)
peptide: GKSESQMDITDINTPKPKKKQRK(Biotin)
notes: neprilysin (NEP, neutral endopeptidase 24.11, CD10), human, N-terminal cytoplasmic domain, amino acids 2-23; C-terminal lysine that carries the biotin, named in words only; It is surmised that the biotinylated lysine is an extra residue after aa 23; also called NEP-NT; non-phosphorylated NEP-NT; source: synthetic peptide (Peptide Specialty Labs, Heidelberg)
B2: synthetic biotin-labeled peptide representing the N-terminal cytoplasmic domain (aa 2-23) of human NEP with serine 6 phosphorylated (peptide)
peptide: GKSE[pS]QMDITDINTPKPKKKQRK(Biotin)
notes: neprilysin (NEP, neutral endopeptidase 24.11, CD10), human, N-terminal cytoplasmic domain, amino acids 2-23, serine 6 phosphorylated; C-terminal lysine that carries the biotin, named in words only; It is surmised that the biotinylated lysine is an extra residue after aa 23; also called pNEP-NT; phosphorylated NEP-NT; source: synthetic peptide (Peptide Specialty Labs, Heidelberg)

Experiments:
[1] = target: PTEN C-terminal domain, 367-403 (UniProt P60484); test: biotin-peptide streptavidin-agarose pull-down, PTEN blot; settings: reference: non-phosphorylated NEP-NT peptide; sites S6
[2] = target: Ezrin N-terminus, 1-310 (UniProt P15311); test: biotin-peptide streptavidin-agarose pull-down, MBP blot; settings: reference: non-phosphorylated NEP-NT peptide; sites S6
[3] = target: PTEN C-terminal domain, 367-403 (UniProt P60484); test: SPR, peptide on streptavidin chip; settings: reference: non-phosphorylated NEP-NT peptide; sites S6
[4] = target: Ezrin N-terminus, 1-310 (UniProt P15311); test: SPR, peptide on streptavidin chip; settings: reference: non-phosphorylated NEP-NT peptide; sites S6
[5] = target: T1, fusion protein of the maltose binding protein (MBP) and the N-terminus of Ezrin (amino acids 1-310) (human, UniProt P15311 1-310); test: SPR; Biacore3000; biotin-labeled NEP peptides coupled to streptavidin (SA) chip to ~1000 RU; HBS-P buffer (10 mM HEPES pH 7.4, 150 mM NaCl, 0.005% Surfactant P20), 25°C, 30 µl/min; reference surface without peptide subtracted; MBP Ezrin-NT 0.05-0.8 µM, GST PTEN-CT 1.6-12.8 µM; settings: both partners purified
T1 construct: Ezrin, human, N-terminus, amino acids 1-310; Cloned into the EcoRI/SalI sites of pMAL-c2; also called MBP-Ezrin-NT; MBP Ezrin-NT; source: E. coli DH5α, precipitated by Amylose-resin

Molecule	binding against the reference [1]	binding against the reference [2]	KD [3]	KD [4]	Kd [5] [nM]
Neprilysin (NEP, CD10) N-terminal cytoplasmic domain, 2-23 (from UniProt P08473) pSer6 peptide (pNEP-NT)	weaker	same	weaker; reference ∼0,71	same; reference ∼5.8	
B1					~5.8
B2					~5.9
